Measurements from patent US20050054041.

B1: KinI-3 construct D183L546 (protein)
chain: MDCDIPIIQRISHVSGYNYGIPHSCIRQNTSEKQNPWTEMEKIRVCVRKRPLGMREVRRGEINIITVEDKETLLVHEKKEAVDLTQYILQHVFYFDEVFGEACTNQDVYMKTTHPLIQHIFNGGNATCFAYGQTGAGKTYTMIGTHENPGLYALAAKDIFRQLEVSQPRKHLFVWISFYEIYCGQLYDLLNRRKRLFAREDSKHMVQIVGLQELQVDSVELLLEVILKGSKERSTGATGVNADSSRSHAVIQIQIKDSAKRTFGRISFIDLAGSERAADARDSDRQTKMEGAEINQSLLALKECIRALDQEHTHTPFRQSKLTQVLKDSFIGNAKTCMIANISPSHVATEHTLNTLRYADRVKELLEHHHHHH
B2: KinI-3 construct E233F541 (protein)
chain: LGMREVRRGEINIITVEDKETLLVHEKKEAVDLTQYILQHVFYFDEVFGEACTNQDVYMKTTHPLIQHIFNGGNATCFAYGQTGAGKTYTMIGTHENPGLYALAAKDIFRQLEVSQPRKHLFVWISFYEIYCGQLYDLLNRRKRLFAREDSKHMVQIVGLQELQVDSVELLLEVILKGSKERSTGATGVNADSSRSHAVIQIQIKDSAKRTFGRISFIDLAGSERAADARDSDRQTKMEGAEINQSLLALKECIRALDQEHTHTPFRQSKLTQVLKDSFIGNAKTCMIANISPSHVATEHTLNTLRYAD
B3: KinI-3 construct E213/S566 (protein)
chain: MEKQNPWTEMEKIRVCVRKRPLGMREVRRGEINIITVEDKETLLVHEKKEAVDLTQYILQHVFYFDEVFGEACTNQDVYMKTTHPLIQHIFNGGNATCFAYGQTGAGKTYTMIGTHENPGLYALAAKDIFRQLEVSQPRKHLFVWISFYEIYCGQLYDLLNRRKRLFAREDSKHMVQIVGLQELQVDSVELLLEVILKGSKERSTGATGVNADSSRSHAVIQIQIKDSAKRTFGRISFIDLAGSERAADARDSDRQTKMEGAEINQSLLALKECIRALDQEHTHTPFRQSKLTQVLKDSFIGNAKTCMIANISPSHVATEHTLNTLRYADRVKELKKGIKCCTSVTSRNRTSGNSLEHHHHHH
B4: KinI-3 construct D143L546 (protein)
chain: DDSQYHTKTGILNATAGDSYVQTEISTSLFSPNYLSAILGDCDIPIIQRISHVSGYNYGIPHSCIRQNTSEKQNPWTEMEKIRVCVRKRPLGMREVRRGEINIITVEDKETLLVHEKKEAVDLTQYILQHVFYFDEVFGEACTNQDVYMKTTHPLIQHIFNGGNATCFAYGQTGAGKTYTMIGTHENPGLYALAAKDIFRQLEVSQPRKHLFVWISFYEIYCGQLYDLLNRRKRLFAREDSKHMVQIVGLQELQVDSVELLLEVILKGSKERSTGATGVNADSSRSHAVIQIQIKDSAKRTFGRISFIDLAGSERAADARDSDRQTKMEGAEINQSLLALKECIRALDQEHTHTPFRQSKLTQVLKDSFIGNAKTCMIANISPSHVATEHTLNTLRYADRVKEL
B5: KinI-3 construct V195L546 (protein)
chain: VSGYNYGIPHSCIRQNTSEKQNPWTEMEKIRVCVRKRPLGMREVRRGEINIITVEDKETLLVHEKKEAVDLTQYILQHVFYFDEVFGEACTNQDVYMKTTHPLIQHIFNGGNATCFAYGQTGAGKTYTMIGTHENPGLYALAAKDIFRQLEVSQPRKHLFVWISFYEIYCGQLYDLLNRRKRLFAREDSKHMVQIVGLQELQVDSVELLLEVILKGSKERSTGATGVNADSSRSHAVIQIQIKDSAKRTFGRISFIDLAGSERAADARDSDRQTKMEGAEINQSLLALKECIRALDQEHTHTPFRQSKLTQVLKDSFIGNAKTCMIANISPSHVATEHTLNTLRYADRVKEL
B6: KinI-3 construct E166L546 (protein)
chain: EISTSLFSPNYLSAILGDCDIPIIQRISHVSGYNYGIPHSCIRQNTSEKQNPWTEMEKIRVCVRKRPLGMREVRRGEINIITVEDKETLLVHEKKEAVDLTQYILQHVFYFDEVFGEACTNQDVYMKTTHPLIQHIFNGGNATCFAYGQTGAGKTYTMIGTHENPGLYALAAKDIFRQLEVSQPRKHLFVWISFYEIYCGQLYDLLNRRKRLFAREDSKHMVQIVGLQELQVDSVELLLEVILKGSKERSTGATGVNADSSRSHAVIQIQIKDSAKRTFGRISFIDLAGSERAADARDSDRQTKMEGAEINQSLLALKECIRALDQEHTHTPFRQSKLTQVLKDSFIGNAKTCMIANISPSHVATEHTLNTLRYADRVKEL
B7: KinI-3 construct E213/L546 (protein)
chain: MEKQNPWTEMEKIRVCVRKRPLGMREVRRGEINIITVEDKETLLVHEKKEAVDLTQYILQHVFYFDEVFGEACTNQDVYMKTTHPLIQHIFNGGNATCFAYGQTGAGKTYTMIGTHENPGLYALAAKDIFRQLEVSQPRKHLFVWISFYEIYCGQLYDLLNRRKRLFAREDSKHMVQIVGLQELQVDSVELLLEVILKGSKERSTGATGVNADSSRSHAVIQIQIKDSAKRTFGRISFIDLAGSERAADARDSDRQTKMEGAEINQSLLALKECIRALDQEHTHTPFRQSKLTQVLKDSFIGNAKTCMIANISPSHVATEHTLNTLRYADRVKELLEHHHHHH
B8: KinI-3 construct V195S566 (protein)
chain: MVSGYNYGIPHSCIRQNTSEKQNPWTEMEKIRVCVRKRPLGMREVRRGEINIITVEDKETLLVHEKKEAVDLTQYILQHVFYFDEVFGEACTNQDVYMKTTHPLIQHIFNGGNATCFAYGQTGAGKTYTMIGTHENPGLYALAAKDIFRQLEVSQPRKHLFVWISFYEIYCGQLYDLLNRRKRLFAREDSKHMVQIVGLQELQVDSVELLLEVILKGSKERSTGATGVNADSSRSHAVIQIQIKDSAKRTFGRISFIDLAGSERAADARDSDRQTKMEGAEINQSLLALKECIRALDQEHTHTPFRQSKLTQVLKDSFIGNAKTCMIANISPSHVATEHTLNTLRYADRVKELKKGIKCCTSVTSRNRTSGNSLEHHHHHH

The molecules below were run on microtubules.

| Molecule | microtubule depolymerization (tubulin in supernatant after centrifugation, SDS PAGE), with ATP | microtubule depolymerization (tubulin in supernatant after centrifugation, SDS PAGE), without hydrolysable ATP |
| --- | --- | --- |
| KinI-3 protein, bacterially expressed and purified (construct not stated) | Track 3 shows an increase in tubulin in the supernatant that indicates depolymerization in the presence of ATP | No depolymerization was observed in the absence of ATP (track 4), in the presence of AMP-PNP (track 5) or in the presence of ADP (track 6) |

Target: microtubules
Remark: another data set of the same source

| Molecule | MT depolymerization |
| --- | --- |
| B1 | yes |
| B2 | no |
| B3 | weak |
| B4 | no |
| B5 | no |
| B6 | no |
| B7 | yes |
| B8 | yes |
